For one assay, the system named is 5HT2C receptor. Put plainly: Antagonist binding to 5HT2C NPxxY motif alanine mutants (Table 1). On the set-up: species or system human; Average / Average - BG: unit not given here. The settings on record: for % of Wildtype binding / DPM1 / DPM2: antagonist Mesulergine binding; for DPM1: replicate 1; for DPM2: replicate 2; for Average - BG: average minus background; for Average: average of DPM1 and DPM2. How it is done:
(§1) An alanine scan was carried out in a similar fashion on an adenosine A2A receptor along with the 5HT2C receptor in the presence of the antagonist Mesulergine. Both alanine scans were carried out in order to further stabilize the antagonist conformation. […] The motif in Adenosine A2A is NPFIY (SEQ ID NO: 364) and for the 5HT2C is NPLVY (SEQ ID NO: 363). Therefore mutations in this region of the receptor contain stabilising mutations specific to the agonist conformation and detrimentally effect antagonist binding.
5HT2C receptor was solubilised from transiently transfected mammalian cells about 40 hours post transfection, in 50 mM Hepes pH7.4/100 mM KCl/0.5% DDM/(0.1% CHS/0.6% CHAPS was added to cells for SCH23390 agonist assay) and protease inhibitor. Cell lysates were left at 4° C. on a rotator and then cleared by centrifugation at 13,200 rpm for 20 minutes at 4° C. Thermostability analysis was performed directly on the soluble lysate. The Tm was determined by incubating 108 μl of the lysate with [N^6-methyl-^3H]Mesulergine radioligand at a final concentration of 17 nM or 9 nM [^3H]SCH23390 for one hour at 4° C. The six ligand incubations are then incubated at six different temperatures from 25° C. to 55° C., for thirty minutes. Receptor bound and free radioligand were separated using G25 Sephadex spin columns.

A further assay concerns adenosine A2A receptor. Briefly: Antagonist binding to adenosine A2A NPxxY motif alanine mutants (Table 1). Set-up: species or system human. Particulars: for % of Wildtype binding / DPM1 / DPM2: antagonist binding; for DPM1: replicate 1; for DPM2: replicate 2; for Average - BG: average minus background; for Average: average of DPM1 and DPM2. How it is done: as §1
Adenosine A2A receptor was solubilised from transiently transfected mammalian cells about 36 hours post transfection, in 50 mM Tris pH7.4/400 mM NaCl/0.5% DDM and protease inhibitor. Cell lysates were left at 4° C. on a rotator and then cleared by centrifugation at 13,200 rpm for 20 minutes at 4° C. Solubilised receptors were then purified on Ni-NTA beads and eluted with 50 mM histidine. The eluted receptor was used in radioligand binding assay. The Tm was determined by incubating 108 μl of the eluate with Zm241385 radioligand at a final concentration of 100 nM for one hour at 4° C. The six ligand incubations are then incubated at six different temperatures from 20° C. to 50° C., for thirty minutes. Receptor bound and free radioligand were separated using G25 Sephadex spin columns.

Data on seven molecules can be found in patent US8703915B2, “Mutant proteins and methods for producing them” (Heptares Therapeutics Limited, priority 2009, dated 2014).

B1: V367A: 5HT2C receptor NPLVY motif mutant V367A (protein, UniProt P28335 33-458, looked up, variant V367A)
5-hydroxytryptamine receptor …: IVTDIFNTSDGGRFKFPDGVQNWPALSIVIIIIMTIGGNILVIMAVSMEKKLHNATNYFLMSLAIADMLVGLLVMPLSLLAILYDYVWPLPRYLCPVWISLDVLFSTASIMHLCAISLDRYVAIRNPIEHSRFNSRTKAIMKIAIVWAISIGVSVPIPVIGLRDEEKVFVNNTTCVLNDPNFVLIGSFVAFFIPLTIMVITYCLTIYVLRRQALMLLHGHTEEPPGLSLDFLKCCKRNTAEEENSANPNQDQNARRRKKKERRPRGTMQAINNERKASKVLGIVFFVFLIMWCPFFITNILSVLCEKSCNQKLMEKLLNVFVWIGYVCSGINPLAYTLFNKIYRRAFSNYLRCNYKVEKKPPVRQIPRVAATALSGRELNVNIYRHTNEPVIEKASDNEPGIEMQVENLELPVNPSSVVSERISSV
In the case of B1, in the assay on 5HT2C receptor, the “% of Wildtype binding” value was 22.25%, the DPM1 was found to be 2512 DPM, the DPM2 is on record as 2449 DPM and the “Average - BG” value is listed as 2049. Moreover, the Average with 5HT2C receptor is reported as 2480.5.

B2: Y368A: 5HT2C receptor NPLVY motif mutant Y368A (protein, UniProt P28335 33-458, looked up, variant Y368A)
5-hydroxytryptamine receptor …: IVTDIFNTSDGGRFKFPDGVQNWPALSIVIIIIMTIGGNILVIMAVSMEKKLHNATNYFLMSLAIADMLVGLLVMPLSLLAILYDYVWPLPRYLCPVWISLDVLFSTASIMHLCAISLDRYVAIRNPIEHSRFNSRTKAIMKIAIVWAISIGVSVPIPVIGLRDEEKVFVNNTTCVLNDPNFVLIGSFVAFFIPLTIMVITYCLTIYVLRRQALMLLHGHTEEPPGLSLDFLKCCKRNTAEEENSANPNQDQNARRRKKKERRPRGTMQAINNERKASKVLGIVFFVFLIMWCPFFITNILSVLCEKSCNQKLMEKLLNVFVWIGYVCSGINPLVATLFNKIYRRAFSNYLRCNYKVEKKPPVRQIPRVAATALSGRELNVNIYRHTNEPVIEKASDNEPGIEMQVENLELPVNPSSVVSERISSV
Take B2: in the assay on 5HT2C receptor, the “% of Wildtype binding” value was determined as 11.22%, the DPM1 was determined as 1328 DPM, the DPM2 was determined as 1602 DPM and the “Average - BG” value worked out at 1033.5. The molecule further gave an Average in the assay on 5HT2C receptor of 1465.

B3: N364A: 5HT2C receptor NPLVY motif mutant N364A (protein, UniProt P28335 33-458, looked up, variant N364A)
5-hydroxytryptamine receptor …: IVTDIFNTSDGGRFKFPDGVQNWPALSIVIIIIMTIGGNILVIMAVSMEKKLHNATNYFLMSLAIADMLVGLLVMPLSLLAILYDYVWPLPRYLCPVWISLDVLFSTASIMHLCAISLDRYVAIRNPIEHSRFNSRTKAIMKIAIVWAISIGVSVPIPVIGLRDEEKVFVNNTTCVLNDPNFVLIGSFVAFFIPLTIMVITYCLTIYVLRRQALMLLHGHTEEPPGLSLDFLKCCKRNTAEEENSANPNQDQNARRRKKKERRPRGTMQAINNERKASKVLGIVFFVFLIMWCPFFITNILSVLCEKSCNQKLMEKLLNVFVWIGYVCSGIAPLVYTLFNKIYRRAFSNYLRCNYKVEKKPPVRQIPRVAATALSGRELNVNIYRHTNEPVIEKASDNEPGIEMQVENLELPVNPSSVVSERISSV
For B3, in the assay with 5HT2C receptor, the “% of Wildtype binding” value is reported as 36.35%, the DPM1 amounted to 3988 DPM, the DPM2 is 3569 DPM and the “Average - BG” value is recorded as 3347. Besides, in the assay with 5HT2C receptor, the Average was found to be 3778.5.

B4: P365A: 5HT2C receptor NPLVY motif mutant P365A (protein, UniProt P28335 33-458, looked up, variant P365A)
5-hydroxytryptamine receptor …: IVTDIFNTSDGGRFKFPDGVQNWPALSIVIIIIMTIGGNILVIMAVSMEKKLHNATNYFLMSLAIADMLVGLLVMPLSLLAILYDYVWPLPRYLCPVWISLDVLFSTASIMHLCAISLDRYVAIRNPIEHSRFNSRTKAIMKIAIVWAISIGVSVPIPVIGLRDEEKVFVNNTTCVLNDPNFVLIGSFVAFFIPLTIMVITYCLTIYVLRRQALMLLHGHTEEPPGLSLDFLKCCKRNTAEEENSANPNQDQNARRRKKKERRPRGTMQAINNERKASKVLGIVFFVFLIMWCPFFITNILSVLCEKSCNQKLMEKLLNVFVWIGYVCSGINALVYTLFNKIYRRAFSNYLRCNYKVEKKPPVRQIPRVAATALSGRELNVNIYRHTNEPVIEKASDNEPGIEMQVENLELPVNPSSVVSERISSV
For B4, in the assay with 5HT2C receptor, the “% of Wildtype binding” value turned out to be 14.94%, the DPM1 stood at 1855 DPM, the DPM2 was found to be 1760 DPM and the “Average - BG” value came out at 1376. Moreover, the Average in the assay on 5HT2C receptor is given as 1807.5.

B5: P285A: adenosine A2A receptor NPFIY motif mutant P285A (protein, UniProt P29274 1-412, looked up, variant P285A)
Adenosine receptor A2a: MPIMGSSVYITVELAIAVLAILGNVLVCWAVWLNSNLQNVTNYFVVSLAAADIAVGVLAIPFAITISTGFCAACHGCLFIACFVLVLTQSSIFSLLAIAIDRYIAIRIPLRYNGLVTGTRAKGIIAICWVLSFAIGLTPMLGWNNCGQPKEGKNHSQGCGEGQVACLFEDVVPMNYMVYFNFFACVLVPLLLMLGVYLRIFLAARRQLKQMESQPLPGERARSTLQKEVHAAKSLAIIVGLFALCWLPLHIINCFTFFCPDCSHAPLWLMYLAIVLSHTNSVVNAFIYAYRIREFRQTFRKIIRSHVLRQQEPFKAAGTSARVLAAHGSDGEQVSLRLNGHPPGVWANGSAPHPERRPNGYALGLVSGGSAQESQGNTGLPDVELLSHELKGVCPEPPGLDDPLAQDGAGVS
Turning to B5, in the assay on adenosine A2A receptor, the “% of Wildtype binding” value came out at 7.69%, the DPM1 stood at 1488 DPM, the DPM2 was 1471 DPM and the “Average - BG” value is on record as 979.5. In the assay with adenosine A2A receptor, this molecule came in with an Average of 1479.5.

B6: F286A: adenosine A2A receptor NPFIY motif mutant F286A (protein, UniProt P29274 1-412, looked up, variant F286A)
Adenosine receptor A2a: MPIMGSSVYITVELAIAVLAILGNVLVCWAVWLNSNLQNVTNYFVVSLAAADIAVGVLAIPFAITISTGFCAACHGCLFIACFVLVLTQSSIFSLLAIAIDRYIAIRIPLRYNGLVTGTRAKGIIAICWVLSFAIGLTPMLGWNNCGQPKEGKNHSQGCGEGQVACLFEDVVPMNYMVYFNFFACVLVPLLLMLGVYLRIFLAARRQLKQMESQPLPGERARSTLQKEVHAAKSLAIIVGLFALCWLPLHIINCFTFFCPDCSHAPLWLMYLAIVLSHTNSVVNPAIYAYRIREFRQTFRKIIRSHVLRQQEPFKAAGTSARVLAAHGSDGEQVSLRLNGHPPGVWANGSAPHPERRPNGYALGLVSGGSAQESQGNTGLPDVELLSHELKGVCPEPPGLDDPLAQDGAGVS
As to B6, in the assay with adenosine A2A receptor, the “% of Wildtype binding” value was found to be 0.13%, the DPM1 is given as 519 DPM, the DPM2 came out at 514 DPM and the “Average - BG” value is recorded as 16.5. The molecule further displayed an Average in the assay on adenosine A2A receptor of 516.5.

B7: 287A: adenosine A2A receptor NPFIY motif mutant, residue 287 to alanine (protein, UniProt P29274 1-412, looked up, variant I287A)
Adenosine receptor A2a: MPIMGSSVYITVELAIAVLAILGNVLVCWAVWLNSNLQNVTNYFVVSLAAADIAVGVLAIPFAITISTGFCAACHGCLFIACFVLVLTQSSIFSLLAIAIDRYIAIRIPLRYNGLVTGTRAKGIIAICWVLSFAIGLTPMLGWNNCGQPKEGKNHSQGCGEGQVACLFEDVVPMNYMVYFNFFACVLVPLLLMLGVYLRIFLAARRQLKQMESQPLPGERARSTLQKEVHAAKSLAIIVGLFALCWLPLHIINCFTFFCPDCSHAPLWLMYLAIVLSHTNSVVNPFAYAYRIREFRQTFRKIIRSHVLRQQEPFKAAGTSARVLAAHGSDGEQVSLRLNGHPPGVWANGSAPHPERRPNGYALGLVSGGSAQESQGNTGLPDVELLSHELKGVCPEPPGLDDPLAQDGAGVS
Turning to B7, in the assay with adenosine A2A receptor, the “% of Wildtype binding” value is given as 2.78%, the DPM1 worked out at 888 DPM, the DPM2 was 820 DPM and the “Average - BG” value is reported as 354. In the assay with adenosine A2A receptor, the Average is reported as 854.
